Results taken from the nanobody polyreactivity screen of Harvey et al. (2022).

Assay: yeast display, Sf9 membrane polyspecificity reagent, FACS + sequencing; frameworks hold sequencing errors
How it was run: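 In a synthetic yeast display library (Saccharomyces cerevisiae BJ5465), nanobody expression was induced with galactose for 36–48 hours. FACS gates were set low and high (top ~1%) using anti-HA fluorescence for expression and streptavidin fluorescence for binding of the Sf9 membrane reagent. Each polyreactivity label is drawn from the gate of origin.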

Sequence | polyreactivity (PSR sort gate)
QFQLVESGGGFVQAGGSLRLSCAASGSIFLYNDMGWYRQAPGKDRELLPAITSDGSTNYADSVKGRFTISRDNAKNTVYLQMNSLKPEDTAVYYCAADALWFYLNWYYGGTAYGYWGQGTQVTVSS | low polyreactivity
QVQLVESGGGLVQAGGSLRLSCAASGITFSPYTMGWYRQAPGKERELVAAINDGAITYYADSVKGRFTISRDNAKNTVYLQMNSLKPEDTAVFYCAAAAWGTDPFSTDYATYDYWGQVTQVTVSS | low polyreactivity
QVHLVDSGGGLVQAGGILRLSCAASGRIFVNTMGCYRQAPGKEMELVAAITRSGVSTYYADSVKGRFTISRDNAKNTVYLQMNSLKPEDTAVYYCAAREWSGPKIYPPYRYNSWGQGTQVTVSS | high polyreactivity
QVQLVESGGGLVQAGGCLRLSCAPSGFIFGGYAMGWDRPAPGKEREVVAAISSSGGSTYYADSVKGRFTISRDNAKNTVYLQMNSLKPEDTAVYYCAARIQSVSSGRWFDYWGQGTQVTVSS | high polyreactivity
QVQLVESGGGLVQAGGSLRLSSAASGFIFSTYAMGWYRQAPGKEREFVAAITRTGTRTYYADSVKGRFTISRDNAKNTVYLQMTSLKPEDTAVYYCAARAGVEAYGSRYGYWGQGTQGTVSS | high polyreactivity
QVQLVESGGGLVQAGGSLRLSCAASGLTFWDNAMGWYRQARGKERELVAAIRGGGSTYYADSVKGRFTISRDNAKNTVYLQMNSIIPEDTAVYYCNKQYWYWSNTLTIRDYWGQGTQVTVSS | low polyreactivity
QVQLVESGGGLVQAGGSLRLSCAASGFIFGGYAMGWYRQAPGKERALVAAITRSGGSTYYADSVKGRFTISRDNAKNTVYLQMNSLKPEDTAVYYCAAERQPYRTSSYNYWGQGTQVTVSS | high polyreactivity
QVQLVESGGGLVQAGGSLSLSCAASGSTFNRNAMGWDRQAPGKEREFVAAITWSGGSTYYADSVKGRFTISRDNAKNTVYLQMNSLKPEDTAVYYCNADRFSSRHSYDYWGQGTQVTVSS | low polyreactivity
QVQIVESGGGLVQAGGSLRLSCAASGSIFSVYAMGWYRQAPGKERELVAGINRRTGITYYADSVKGRFTISRDNAKNTVYLQMNSLKPEDTAVYYCAADPYVKYNYWGQGTQVTVSS | low polyreactivity
QVQLVESGGGLVQAGGSLRLSCAASGLTFEGNAMGWYRQAPGKERELVAAISRRGGSTYYADSVKGRFTISRHNAKNTVYLQMNSLKPEDSAVYYCAADRQPYTDKYDYWGQGTQVTVSS | high polyreactivity
QVQLVESGGGLVQAGGSLRLSCAASGSIFKRNDMGWYRQAPGKERELVASISWGGTSTYYADSVKGRLTISRDLAKNTVYLKMYSLKPEDTAVYYCAARGLYTYKTYDDWGQGTLVTVSS | low polyreactivity
QDQHVESGGGLVQAGGSLRLSCAASGSTLLYYVMGWYRQAPGKERELVAAITGTGGRTYYADSVKGRFTISRDNAKNTVYLQMNSLKPEDTAVYYCAREWRTRIYYYWGQGTQVTVSS | low polyreactivity
QVQLVESGGGLVQAGGSLRLSCAASGSNFRRNAMGWYRQAPGKERELVAAINSRGGSTYYADSVKGRFTISRDNAKNTVYLQMNSLKPEDTAVFYCATARFLRYDRYDDYWGQGTQVTVSS | low polyreactivity
QVQLVESGGGLVQAGGSLRLSCAASGFTFLYNAMGWYRQAPGKERELVAAIDSGGNTNYADSVKGRFTISRDNAKNTVYLQMNSLKPEDTAVYYCAADVVSGGQGTADYDYWGQGTQVTVSS | low polyreactivity
QVHLVESGGGLVQAGGCLRLSCAASGSIFSVHAMGWYRQAPVKERELVAAISGDGDSTYYADSVKGRFTISRDNAKNTVYLQMNSLKPEDTAVYYCAVEPNVYFSVFVLFPSDYWGQGSQVTVSS | low polyreactivity
QVQLVESGGGLVQAGGSLRLSCAASGYIFSGYAMGWYRQAPGKEMELVAAISSNGGSTYYADSVKGRFTISRDNAKNTVYLQMNSLKPEDTAVYYCNRGLAARVGRGDYWGQGTQVTVSS | low polyreactivity
QVQLVESGGGLVQAGGSLRLSCAASGLTLKRYAMGWYRQAPGKERELVAAISTRGGSTYYADSVKGRFTISRDNAKNTVYLQMNSLKPEDTAVYYCAAGDYWGQGTQVTVSS | high polyreactivity
QVQLVESGGGLVQAGGSLRLSCAASGFTFWTYAMGWYRQAPGKERELVAAIDSGGSTYYADSVKGRFTISRDNAKNTVYLQMNSLKPEDTAVYYCNAGPSVTSGYDYDYWGQGTQVTVSS | low polyreactivity
QVQLGESGGGLVQAGGSLRLSCAASGGILYWYAMGWYRQAPGKERELVAAIDGTGGSTYYADSVKGRFTISRDNAKNTVYFQMYSLRPEDTEVYYCDATRPSIVTGNVKNGYWGHGTQVTVSS | low polyreactivity
QLQLVESGGGLVQAGGSLRLSSAASGIIRVNAMGWNIQAPGKQRELVATITNVGSTNYADSVKGRFTISRDNAKNTVYLQMNSLKPEDTAVYYCAAEYDGPFYSFYPEQRYYWGQGTQVTVSS | low polyreactivity
QVQLVESGVGLVQAGGTLRLSGAASGLIFEYYAMGWYRQPPGKETELVAAITTSGGSTYYADSVKGRFTISRDIAKNTVYLQMNSLKPEDTAVYDCAAVGVRSRYYGYDYWGQGTLVTVSS | high polyreactivity
QVQLVESGGGLVQAGGSLRLSCAASGITFYFNAMGWYRQAPGKEREMVAAISWPGGSTYYADSVKGRFTISRDNAKNTVYLQMNRLKPEDTAVYYCAAEAYFELSGGGLEYGYDYWGQGTQVTVSS | high polyreactivity

Sequence | polyreactivity (PSR sort gate)
QVQLVESGGGLVQAGGSLRLSCAASGNTFAGNAMGWYRPAPGKERELVAAISRSGVTTRYADSVKGRVTISRDNAKHTVYLQMNSLKPEDTAVYYCNADPRLRQTRDYWGQGTQVTVSS | high polyreactivity
QDQLVESGGGLVQAGGSLRLSCAASGLTFDRYTMGWYRQAPGKERELVAAITRGGGNTYYADSVKGRFTISRDNAKNTVYLQMNSLKPEDTAVYYCAANRRDGYDYWGQGTQVTVSS | low polyreactivity
QVQLVESGGGLVHAGGSLRLSCSPSVSIFNTYAMGWYRQAPGKERELVAGITKTGSPTYYADSVKGRFTISRDIAKNTFYLQMNSLKPEDTAVYYCNARIWPRSYRYDYWGQGTQVTVSS | high polyreactivity
QVQLVESGGGLVQAGGSLRLSCAASGIIIRSYAMGWDRQAPGKERELVAAITRSGGSTYADSVKGRFTISRDNAKNTVYLQKNSLKPEDTAVYYCAADRYSGWVYRRDDWGQGTQVPVSS | low polyreactivity
QVQLVESGGGLVQAGGSLRLSCAASGRIFYKYAMGWYRQAPGKERELVAGISRRGGTTNYADSVKGRFTNSRDNAKNTVYLQMNSLKPEDTAVYYCAVRPLYDRRYTAVRRYDYWGQGTQVTVSS | high polyreactivity
QVQLVESGGGLVQAGGSLRLSCAASGIIFSLYAMGWYRQAPGKERELVAAISASDGSTYYAVSVKGRFTISRDNAKNTVYLQMNSLKPEDTAVYYCAADSRPTQEYDYWGQGTQVTVSS | low polyreactivity
QVQLVESGGGLVQAGGSLRLSCAASGRIFSTYVMGWYRQAPGKERELVAAITWSGGSTYYADSVKGRFTISRDTAQNTVYLQMNTLKPEDTAVYYCAADEIYGYDYWGQGTQVTVSS | high polyreactivity
QVQLVESGGGLVQAGGSLRLSCAASGFTFSRNAMGWYRQAPGKERELVAAISSSGGSTYYADSVKGRFTISRDNAKNTVYLQMNSLKPEDTAVYYCNVDHWRRGRSDNYWGQGTQVTVSS | high polyreactivity
QVQLVESGGGLVQAGGSLRLSCAATGRNFAVNAIGWYRQAPGKERELVASIRWSGGGTYYADSVKGRFTISRDNAKNTVYLQMNCLKPEDTAVYYCKALRKTYRLDYWGQGTQVTVSS | high polyreactivity
QVQLVESGGGLVQAGGSLRLSCAASGSTFGRYVMGWYRQAPGKEWELVAAISKNAGSTYYADSVKGRFTISRDNAKNTVYLQMNSLKPEDTAVYYCAADWRTKGYDSLGQGTQVTVSS | high polyreactivity
QVQLHESGGGLVQAGGSLRLSCAASGTISYAGPMGWYRQAPGKEREFVAGIGVGSNTNYADSVKGRYTIIRDNAKNTVYLQMNSLNPEDTAVYYCAVGGYDPLGRPYWGQGTQVTVSS | low polyreactivity
QVQLVESGVGLLQEGGSLSLSCAASGRTFRWYGMGWYSQAPGKEREFVAAISFRGGTTYYADSVKGRFTISRDNAKNTVYLQMNSLKPEDTAVYYCAARSGYYTSDYKYYYWGQGTQVTVSS | high polyreactivity
QVQIVESGGGLVQAGVSLRLSCAPSGSTFHLNAMGWYRQAPGKERELVAAISRGGSTYYADSVKGRFTISRDNAKNTVYLQMNRLKPEDTAVYYCNAVWSNFRLGYDYWGQGTQVNVSS | high polyreactivity
HVQLQESGVGLVQAGGSLRLSCAASGTISQEYWMGWYRQAPGKEREFVAAIGLGSNTNYADSLKGRFTISRDNSTNTVFLQMNSLKPEDTAVYYCAVSVWQYSDHVYRGQGTQVTVSS | low polyreactivity
QVQLVETGGGLVQAGGSLRLSCAASGITFFEYAMGWYRQAPGKERELVAGIRYSGSTTYYSDSVKGRFTISRDNAKNTVYLQMNSLKPEDSAVYYCNVDYYSGLYDYYSWGQGTQVTVSS | low polyreactivity
QVQLVESGGGLVQAGGSLRLSCAASGRILVPNAMGWYRQAPGKERELVATITSSGSTYADSVKGRFTISRDNAKNTVYLQMNSLKPEDTAVYYCAAKYTGSFINYGLWGTYFEDDYWGQGTQVTVSS | low polyreactivity
QVQLVESGGGLVQAGGSLRLSCAASGSTFRRYAMGWYRQAPGKERELVAAISSGGSTYYADSVKGRFTISRDNAKNTVYLQMNSLKPEDTALYYCAKRPLKRQIPAVGYDYWGQGTQVTVSS | high polyreactivity
KVQLVESGGGLVQAGGSLRISCAASGSIFGYYTMGWYRQAPGKERELVARITRGGSTYYADSVKGRFTISRDNAKNTVYLHMNSLKPEDTAVYFCNADSRYRYEYWGLGTQVTVSS | low polyreactivity
QVQLVESGGRLVQAGGSLRLSCAASGSIFLAYDMGWYRQAPGKERELVAGITSVGTTYYADSVKGRFTISRDNAKNTVYFQMNSLKPEDTAVYYCAAQLYIRNHFRYASTAAYDMGYWGQGTQVTVSS | low polyreactivity
QVHLVESGGGLVQAGGSLPLSCAASGIIFGGYDMGWYRPAPGIERELVAAISWSGGSTYYADSVKGRFTISRDNAKNTVYLPMNSLKPEDTAVYYCAAAYYAPTRVYYYWGQGTQVTVSS | low polyreactivity
QVQLVESGGGLVQEGGSLRVSCAASGSTLIRNVMVRYRQAPGKERELVAVITYGVGSTYYADSVKGRFTISRDNAKNTVYLQMNSLKPEDTAVYYCNKDPLVFDYWGQGTQVTVSS | low polyreactivity
